The numbers were not newly measured in PMC4536614, which cites them from elsewhere.

In general, Kd refers to the equilibrium constant for the complex coming apart.

The data set concerns the target C3d C3d (Homo sapiens) (UniProt P01024).

Sequence of complement receptor 2 (CR2) (P20023 21-971): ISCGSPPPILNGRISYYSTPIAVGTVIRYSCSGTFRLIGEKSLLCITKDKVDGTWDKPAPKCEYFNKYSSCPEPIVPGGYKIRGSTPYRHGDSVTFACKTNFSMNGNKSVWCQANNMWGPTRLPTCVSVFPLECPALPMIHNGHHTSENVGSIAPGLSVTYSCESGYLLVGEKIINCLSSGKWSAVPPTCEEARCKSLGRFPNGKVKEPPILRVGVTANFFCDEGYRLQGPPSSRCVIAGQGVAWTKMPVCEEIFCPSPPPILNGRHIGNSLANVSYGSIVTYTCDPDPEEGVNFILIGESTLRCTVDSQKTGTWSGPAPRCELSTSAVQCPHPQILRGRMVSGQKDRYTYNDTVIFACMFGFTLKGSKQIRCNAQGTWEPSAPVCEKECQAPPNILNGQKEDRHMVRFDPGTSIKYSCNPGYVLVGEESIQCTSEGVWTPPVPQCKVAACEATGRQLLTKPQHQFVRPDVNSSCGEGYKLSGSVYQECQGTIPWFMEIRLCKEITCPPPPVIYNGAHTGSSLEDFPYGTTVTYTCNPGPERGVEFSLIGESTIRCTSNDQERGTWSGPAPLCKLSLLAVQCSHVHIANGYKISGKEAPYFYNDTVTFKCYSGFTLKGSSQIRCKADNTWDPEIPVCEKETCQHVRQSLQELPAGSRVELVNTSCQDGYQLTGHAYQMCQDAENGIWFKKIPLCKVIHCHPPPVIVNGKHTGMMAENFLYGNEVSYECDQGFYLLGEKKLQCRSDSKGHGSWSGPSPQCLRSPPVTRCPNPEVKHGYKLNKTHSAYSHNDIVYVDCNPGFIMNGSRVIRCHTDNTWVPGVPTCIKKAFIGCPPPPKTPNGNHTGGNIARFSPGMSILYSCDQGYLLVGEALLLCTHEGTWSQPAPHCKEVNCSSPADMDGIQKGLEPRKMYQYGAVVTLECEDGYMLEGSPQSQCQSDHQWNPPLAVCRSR
Sequence of C3d C3d (Homo sapiens) (P01024 1002-1303): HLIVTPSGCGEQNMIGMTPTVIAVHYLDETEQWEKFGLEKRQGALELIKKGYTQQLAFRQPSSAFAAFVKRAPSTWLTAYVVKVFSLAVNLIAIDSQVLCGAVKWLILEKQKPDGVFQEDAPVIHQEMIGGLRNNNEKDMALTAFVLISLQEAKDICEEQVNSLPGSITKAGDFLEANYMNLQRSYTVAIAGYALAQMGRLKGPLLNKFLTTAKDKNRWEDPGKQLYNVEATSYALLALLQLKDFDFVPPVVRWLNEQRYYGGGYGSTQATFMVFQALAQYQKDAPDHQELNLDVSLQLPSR

As for “complement receptor 2 (CR2) (from UniProt P20023)”, the equilibrium dissociation constant (Kd) is 500 nM.
